The record followed here is WO2001072771A2 (dated 2003).

Test [1] addresses T1, soluble human insulin receptor (IR-Fc) (human, UniProt P06213 28-956).
T1 construct: extracellular domain; retains the beta-alpha-alpha-beta structure; also called sIR; sIR-Fc
Nature of the test: assay not given.

A further test has as its target T2, sIGF-1R-Fc (UniProt P08069 31-935).
T2 construct: also called slGF-1R-Fc; not shown: Fc part not described
Description: phage ELISA. A general note: ELISA stands for enzyme-linked immunosorbent assay.

In test [2] the target is human IGF-1 receptor (HIGF-1R) (human, UniProt P08069 31-1367). Nature of the test: displacement of 125I-IGF-1 from HIGF-1R.

Positions of bridges follow the written chain, without caps; N, C: chain ends. No end group written: not given here.

On to APTFYAWFNQQTGGGS (on phage; also called ~J229) [IM445 (Δ-12-3 #6)], for which the IC50 in test [1] is roughly 2400 nM. In the case of HPPLEHLKAFLLGGGS (on phage; motif 7; also called ~J228) [IM452 (Δ-12-3 #23)], in the test with sIGF-1R-Fc, the binding result is recorded as “no binding”. On the same count and under the same terms, then HPTSKEIYAKLLGGGS (on phage; motif 7) [IM449 (Δ-12-3 #43)], with “no binding”; and HPSLSDMRWILLGGGS (on phage; motif 7) [IM459 (Δ-12-3* #60)], with “no binding”. On the same count and under the same terms, under HPSTNQMLMKLFGGGS (on phage; motif 7) [IM450 (Δ-12-3 #28)] stands “no binding”; under HPPLSELKLFLIGGGS (on phage; motif 7) [IM451 (Δ-12-3 #34)], “no binding”.

B1: C1 peptide (peptide)
peptide: DYKDCWARPCGDAANFYDWFVQQASKK
modifications: disulfide 5-10 (inferred)
notes: synthetic; biotinylated where printed as b-C1 or D112; also called D112; b-C1
As for B1, the binding result in test [2] is reported as “binds”.

For orientation: IC50 means the concentration at which inhibition is half-maximal. Read a high IC50 as weaker potency.
